Tests used:
[1] = target: glycoprotein on Barrett's esophagus derived CP-D (CP-18821) cells; experiment: cell edge tracking (mechanical deformation) by phase contrast microscopy on fixed CP-D cells, 20 ug/ml WGA, first order kinetics fit
[2] = target: SHEP1 cell (surface binding partners of WGA not named); experiment: z-modulation FFT microscopy on a fixed SHEP1 cell, 10, 20 and 50 µg/ml WGA, first order kinetic model fit
[3] = target: glycoprotein on Barrett's esophagus derived CP-D (CP-18821) cells; experiment: cell edge tracking (mechanical deformation) by phase contrast microscopy on fixed CP-D cells, 5 ug/ml WGA, first order kinetics fit

- Kd [1]: 21 nM
- koff [1]: 0.0029 s⁻¹
- kon [1]: 140000 M⁻¹ s⁻¹
- Kd [2]: 125 nM
- koff [2]: 0.013 s⁻¹
- kon [2]: 14000 M⁻¹ s⁻¹
- Kd [3]: 14 nM
- koff [3]: 0.00156 s⁻¹
- kon [3]: 109000 M⁻¹ s⁻¹
Substance: Wheat germ agglutinin (WGA) (from UniProt P10968 27-197)
